{"source": "patent US20190038623A1", "key": {"[1]": {"molecular_target": "complement component C3 (human) (UniProt P01024)", "assay": "cell-based or functional assay"}, "[2]": {"molecular_target": "human complement component C5 (human) (UniProt P01031)", "assay": "cell-based or functional assay"}}}
{"substance": "Compstatin (peptide)", "values": [{"measurement": "IC50 (µM), Inhibition of C3 Fragment deposition on artificial PNH cells (flow cytometry, anti-C3c staining, N = 2)", "setting": "[1]", "value": 2.2, "unit": "µM"}, {"measurement": "IC50 (µM), Inhibition of C3 Fragment deposition on rabbit erythrocytes (flow cytometry, 20% C5-depleted normal human serum), N = 1", "setting": "[1]", "value": 1.4, "unit": "µM"}, {"measurement": "Inhibition (%) of CAP activity, CAP-mediated hemolysis of rabbit erythrocytes, Experiment 2, Compstatin 0.469 µM, Compound 1 0 µM", "setting": "[1]", "value": 6.9, "unit": "%"}, {"measurement": "Inhibition (%) of CAP activity, CAP-mediated hemolysis of rabbit erythrocytes, Experiment 2, Compstatin 0.934 µM, Compound 1 0 µM", "setting": "[1]", "value": 6, "unit": "%"}, {"measurement": "Inhibition (%) of CAP activity, CAP-mediated hemolysis of rabbit erythrocytes, Experiment 2, Compstatin 1.88 µM, Compound 1 0 µM", "setting": "[1]", "value": 10, "unit": "%"}, {"measurement": "Inhibition (%) of CAP activity, CAP-mediated hemolysis of rabbit erythrocytes, Experiment 2, Compstatin 3.75 µM, Compound 1 0 µM", "setting": "[1]", "value": 15, "unit": "%"}, {"measurement": "Inhibition (%) of CAP activity, CAP-mediated hemolysis of rabbit erythrocytes, Experiment 2, Compstatin 7.5 µM, Compound 1 0 µM", "setting": "[1]", "value": 41, "unit": "%"}, {"measurement": "Inhibition (%) of CAP activity, CAP-mediated hemolysis of rabbit erythrocytes, Experiment 2, Compstatin 15 µM, Compound 1 0 µM", "setting": "[1]", "value": 80, "unit": "%"}, {"measurement": "Inhibition (%) of CAP activity, CAP-mediated hemolysis of rabbit erythrocytes, Experiment 2, Compstatin 30 µM, Compound 1 0 µM", "setting": "[1]", "value": 98, "unit": "%"}, {"measurement": "Inhibition (%) of CAP activity, CAP-mediated hemolysis of rabbit erythrocytes, Experiment 3, Compstatin 0.469 µM, Compound 1 0 µM", "setting": "[1]", "value": 13, "unit": "%"}, {"measurement": "Inhibition (%) of CAP activity, CAP-mediated hemolysis of rabbit erythrocytes, Experiment 3, Compstatin 0.934 µM, Compound 1 0 µM", "setting": "[1]", "value": 17, "unit": "%"}, {"measurement": "Inhibition (%) of CAP activity, CAP-mediated hemolysis of rabbit erythrocytes, Experiment 3, Compstatin 1.88 µM, Compound 1 0 µM", "setting": "[1]", "value": 25, "unit": "%"}, {"measurement": "Inhibition (%) of CAP activity, CAP-mediated hemolysis of rabbit erythrocytes, Experiment 3, Compstatin 3.75 µM, Compound 1 0 µM", "setting": "[1]", "value": 40, "unit": "%"}, {"measurement": "Inhibition (%) of CAP activity, CAP-mediated hemolysis of rabbit erythrocytes, Experiment 3, Compstatin 7.5 µM, Compound 1 0 µM", "setting": "[1]", "value": 63, "unit": "%"}, {"measurement": "Inhibition (%) of CAP activity, CAP-mediated hemolysis of rabbit erythrocytes, Experiment 3, Compstatin 15 µM, Compound 1 0 µM", "setting": "[1]", "value": 97, "unit": "%"}, {"measurement": "Inhibition (%) of CAP activity, CAP-mediated hemolysis of rabbit erythrocytes, Experiment 3, Compstatin 30 µM, Compound 1 0 µM", "setting": "[1]", "value": 98, "unit": "%"}, {"measurement": "Inhibition (%) of CAP activity, CAP-mediated hemolysis of rabbit erythrocytes, Experiment 4, Compstatin 0.469 µM, Compound 1 0 µM", "setting": "[1]", "value": 9, "unit": "%"}, {"measurement": "Inhibition (%) of CAP activity, CAP-mediated hemolysis of rabbit erythrocytes, Experiment 4, Compstatin 0.934 µM, Compound 1 0 µM", "setting": "[1]", "value": 12, "unit": "%"}, {"measurement": "Inhibition (%) of CAP activity, CAP-mediated hemolysis of rabbit erythrocytes, Experiment 4, Compstatin 1.88 µM, Compound 1 0 µM", "setting": "[1]", "value": 22, "unit": "%"}, {"measurement": "Inhibition (%) of CAP activity, CAP-mediated hemolysis of rabbit erythrocytes, Experiment 4, Compstatin 3.75 µM, Compound 1 0 µM", "setting": "[1]", "value": 34, "unit": "%"}, {"measurement": "Inhibition (%) of CAP activity, CAP-mediated hemolysis of rabbit erythrocytes, Experiment 4, Compstatin 7.5 µM, Compound 1 0 µM", "setting": "[1]", "value": 64, "unit": "%"}, {"measurement": "Inhibition (%) of CAP activity, CAP-mediated hemolysis of rabbit erythrocytes, Experiment 4, Compstatin 15 µM, Compound 1 0 µM", "setting": "[1]", "value": 98, "unit": "%"}, {"measurement": "Inhibition (%) of CAP activity, CAP-mediated hemolysis of rabbit erythrocytes, Experiment 4, Compstatin 30 µM, Compound 1 0 µM", "setting": "[1]", "value": 99, "unit": "%"}, {"measurement": "Inhibition (%) of CAP activity, CAP-mediated hemolysis of rabbit erythrocytes, Experiment #1, Compstatin 0.469 µM, Compound 1 0 µM", "setting": "[1]", "value": 7.3, "unit": "%"}, {"measurement": "Inhibition (%) of CAP activity, CAP-mediated hemolysis of rabbit erythrocytes, Experiment #1, Compstatin 0.934 µM, Compound 1 0 µM", "setting": "[1]", "value": 3.6, "unit": "%"}, {"measurement": "Inhibition (%) of CAP activity, CAP-mediated hemolysis of rabbit erythrocytes, Experiment #1, Compstatin 1.88 µM, Compound 1 0 µM", "setting": "[1]", "value": 8.6, "unit": "%"}, {"measurement": "Inhibition (%) of CAP activity, CAP-mediated hemolysis of rabbit erythrocytes, Experiment #1, Compstatin 3.75 µM, Compound 1 0 µM", "setting": "[1]", "value": 17, "unit": "%"}, {"measurement": "Inhibition (%) of CAP activity, CAP-mediated hemolysis of rabbit erythrocytes, Experiment #1, Compstatin 7.5 µM, Compound 1 0 µM", "setting": "[1]", "value": 38, "unit": "%"}, {"measurement": "Inhibition (%) of CAP activity, CAP-mediated hemolysis of rabbit erythrocytes, Experiment #1, Compstatin 15 µM, Compound 1 0 µM", "setting": "[1]", "value": 65, "unit": "%"}, {"measurement": "Inhibition (%) of CAP activity, CAP-mediated hemolysis of rabbit erythrocytes, Experiment #1, Compstatin 30 µM, Compound 1 0 µM", "setting": "[1]", "value": 98, "unit": "%"}, {"measurement": "Inhibition (%) of CAP-mediated hemolysis of PNH erythrocytes, Experiment 2, Compstatin 4.69 µM alone (Compound 1 0 µM)", "setting": "[1]", "value": 0, "unit": "%"}, {"measurement": "Inhibition (%) of CAP-mediated hemolysis of PNH erythrocytes, Experiment 2, Compstatin 9.38 µM alone (Compound 1 0 µM)", "setting": "[1]", "value": 0, "unit": "%"}, {"measurement": "Inhibition (%) of CAP-mediated hemolysis of PNH erythrocytes, Experiment 2, Compstatin 18.8 µM alone (Compound 1 0 µM)", "setting": "[1]", "value": 0, "unit": "%"}, {"measurement": "Inhibition (%) of CAP-mediated hemolysis of PNH erythrocytes, Experiment 2, Compstatin 37.5 µM alone (Compound 1 0 µM)", "setting": "[1]", "value": 0, "unit": "%"}, {"measurement": "Inhibition (%) of CAP-mediated hemolysis of PNH erythrocytes, Experiment 2, Compstatin 75 µM alone (Compound 1 0 µM)", "setting": "[1]", "value": 10, "unit": "%"}, {"measurement": "Inhibition (%) of CAP-mediated hemolysis of PNH erythrocytes, Experiment 2, Compstatin 150 µM alone (Compound 1 0 µM)", "setting": "[1]", "value": 71, "unit": "%"}, {"measurement": "Inhibition (%) of CAP-mediated hemolysis of PNH erythrocytes, Experiment 2, Compstatin 300 µM alone (Compound 1 0 µM)", "setting": "[1]", "value": 99, "unit": "%"}, {"measurement": "Inhibition (%) of CAP-mediated hemolysis of PNH erythrocytes, Experiment #1, Compstatin 4.69 µM alone (Compound 1 0 µM)", "setting": "[1]", "value": 0, "unit": "%"}, {"measurement": "Inhibition (%) of CAP-mediated hemolysis of PNH erythrocytes, Experiment #1, Compstatin 9.38 µM alone (Compound 1 0 µM)", "setting": "[1]", "value": 0, "unit": "%"}, {"measurement": "Inhibition (%) of CAP-mediated hemolysis of PNH erythrocytes, Experiment #1, Compstatin 18.8 µM alone (Compound 1 0 µM)", "setting": "[1]", "value": 0, "unit": "%"}, {"measurement": "Inhibition (%) of CAP-mediated hemolysis of PNH erythrocytes, Experiment #1, Compstatin 37.5 µM alone (Compound 1 0 µM)", "setting": "[1]", "value": 0, "unit": "%"}, {"measurement": "Inhibition (%) of CAP-mediated hemolysis of PNH erythrocytes, Experiment #1, Compstatin 75 µM alone (Compound 1 0 µM)", "setting": "[1]", "value": 9, "unit": "%"}, {"measurement": "Inhibition (%) of CAP-mediated hemolysis of PNH erythrocytes, Experiment #1, Compstatin 150 µM alone (Compound 1 0 µM)", "setting": "[1]", "value": 86, "unit": "%"}, {"measurement": "Inhibition (%) of CAP-mediated hemolysis of PNH erythrocytes, Experiment #1, Compstatin 300 µM alone (Compound 1 0 µM)", "setting": "[1]", "value": 98, "unit": "%"}]}
{"substance": "murine monoclonal antibody to human C5, isotype IgG1K, product No. A217 from Quidel", "values": [{"measurement": "Inhibition (%) of CAP activity, CAP Wieslab assay, Experiment 2, Anti-C5 0.781 µg/mL, Compound 1 0 µM", "setting": "[2]", "value": 8.1, "unit": "%"}, {"measurement": "Inhibition (%) of CAP activity, CAP Wieslab assay, Experiment 2, Anti-C5 1.56 µg/mL, Compound 1 0 µM", "setting": "[2]", "value": 20, "unit": "%"}, {"measurement": "Inhibition (%) of CAP activity, CAP Wieslab assay, Experiment 2, Anti-C5 3.13 µg/mL, Compound 1 0 µM", "setting": "[2]", "value": 46, "unit": "%"}, {"measurement": "Inhibition (%) of CAP activity, CAP Wieslab assay, Experiment 2, Anti-C5 6.25 µg/mL, Compound 1 0 µM", "setting": "[2]", "value": 61, "unit": "%"}, {"measurement": "Inhibition (%) of CAP activity, CAP Wieslab assay, Experiment 2, Anti-C5 12.5 µg/mL, Compound 1 0 µM", "setting": "[2]", "value": 75, "unit": "%"}, {"measurement": "Inhibition (%) of CAP activity, CAP Wieslab assay, Experiment 2, Anti-C5 25 µg/mL, Compound 1 0 µM", "setting": "[2]", "value": 85, "unit": "%"}, {"measurement": "Inhibition (%) of CAP activity, CAP Wieslab assay, Experiment 2, Anti-C5 50 µg/mL, Compound 1 0 µM", "setting": "[2]", "value": 90, "unit": "%"}, {"measurement": "Inhibition (%) of CAP activity, CAP Wieslab assay, Experiment 3, Anti-C5 0.781 µg/mL, Compound 1 0 µM", "setting": "[2]", "value": 10, "unit": "%"}, {"measurement": "Inhibition (%) of CAP activity, CAP Wieslab assay, Experiment 3, Anti-C5 1.56 µg/mL, Compound 1 0 µM", "setting": "[2]", "value": 16, "unit": "%"}, {"measurement": "Inhibition (%) of CAP activity, CAP Wieslab assay, Experiment 3, Anti-C5 3.13 µg/mL, Compound 1 0 µM", "setting": "[2]", "value": 31, "unit": "%"}, {"measurement": "Inhibition (%) of CAP activity, CAP Wieslab assay, Experiment 3, Anti-C5 6.25 µg/mL, Compound 1 0 µM", "setting": "[2]", "value": 45, "unit": "%"}, {"measurement": "Inhibition (%) of CAP activity, CAP Wieslab assay, Experiment 3, Anti-C5 12.5 µg/mL, Compound 1 0 µM", "setting": "[2]", "value": 64, "unit": "%"}, {"measurement": "Inhibition (%) of CAP activity, CAP Wieslab assay, Experiment 3, Anti-C5 25 µg/mL, Compound 1 0 µM", "setting": "[2]", "value": 79, "unit": "%"}, {"measurement": "Inhibition (%) of CAP activity, CAP Wieslab assay, Experiment 3, Anti-C5 50 µg/mL, Compound 1 0 µM", "setting": "[2]", "value": 90, "unit": "%"}, {"measurement": "Inhibition (%) of CAP activity, CAP Wieslab assay, Experiment #1, Anti-C5 0.547 µg/mL, Compound 1 0 µM", "setting": "[2]", "value": 11, "unit": "%"}, {"measurement": "Inhibition (%) of CAP activity, CAP Wieslab assay, Experiment #1, Anti-C5 1.09 µg/mL, Compound 1 0 µM", "setting": "[2]", "value": 11, "unit": "%"}, {"measurement": "Inhibition (%) of CAP activity, CAP Wieslab assay, Experiment #1, Anti-C5 2.19 µg/mL, Compound 1 0 µM", "setting": "[2]", "value": 27, "unit": "%"}, {"measurement": "Inhibition (%) of CAP activity, CAP Wieslab assay, Experiment #1, Anti-C5 4.38 µg/mL, Compound 1 0 µM", "setting": "[2]", "value": 47, "unit": "%"}, {"measurement": "Inhibition (%) of CAP activity, CAP Wieslab assay, Experiment #1, Anti-C5 8.75 µg/mL, Compound 1 0 µM", "setting": "[2]", "value": 60, "unit": "%"}, {"measurement": "Inhibition (%) of CAP activity, CAP Wieslab assay, Experiment #1, Anti-C5 17.5 µg/mL, Compound 1 0 µM", "setting": "[2]", "value": 76, "unit": "%"}, {"measurement": "Inhibition (%) of CAP activity, CAP Wieslab assay, Experiment #1, Anti-C5 35 µg/mL, Compound 1 0 µM", "setting": "[2]", "value": 87, "unit": "%"}]}
